From paper PMC6318248, “Oligomerisation of Synaptobrevin-2 Studied by Native Mass Spectrometry and Chemical Cross-Linking” (Journal of the American Society for Mass Spectrometry, 2018)
“And” between values parts separate entries of the source, which are not always exact repeats. Identical values can stand only once. Like-named read-outs stand apart in the source and are kept apart here.

Tests used:
[1] = target: Synaptobrevin-2, full-length protein Syb(1-116) (Rattus norvegicus) (UniProt P63045); assay: cross-linking; Syb(1-116) in solution (chaps), 10 μM and 100 μM protein, BS3 (83-166 μM at 100 μM protein), 1 h at 25 °C; Coomassie gel and western blot; cross-linked peptides by LC-MS/MS
[2] = target: Synaptobrevin-2, full-length protein Syb(1-116) (Rattus norvegicus) (UniProt P63045); assay: as above; remark: listed apart in the source
[3] = target: the molecule itself; assay: native MS; Syb(49-96) at 10 μM, 200 mM ammonium acetate pH 7.0
[4] = target: the molecule itself; assay: ion mobility mass spectrometry; Syb(49-96), nESI, home-built drift-tube instrument, helium buffer gas, soft conditions; limited transmission for high m/z
[5] = target: the molecule itself; assay: cross-linking; 650 μM Syb(49-96), 180 and 250 μM BS3, 1 h at 25 °C; Coomassie gel and western blot; cross-linked peptides by LC-MS/MS

| Molecule | stoichiometry N [1] | stoichiometry N [2] | stoichiometry N [3] | stoichiometry N [4] | stoichiometry N [5] |
| --- | --- | --- | --- | --- | --- |
| Synaptobrevin-2, full-length protein Syb(1-116) (from UniProt P63045 1-116) (natural protein) | 2 and < 5 | < 6 |  |  |  |
| NVDKVLERDQKLSELDDRADALQAGASQFETSAAKLKRKYWWKNLKMM (domain or fragment, Rattus norvegicus, UniProt P63045 49-96, looked up, Synaptobrevin-2, Rattus norvegicus, UniProt P63045, residues 49-96 (C-terminal half of the SNARE motif and the juxtamembrane domain); Residual residues of the thrombin cleavage site stay at the N-terminus (measured mass 6045 Da); Plasmid was a gift from R. Jahn; source: E. coli BL21 (DE3), purified (Ni2+ IMAC, thrombin cleavage, reversed IMAC, SEC without detergent); not shown: His-tag, …) [Synaptobrevin-2, C-terminal fragment of the cytosolic domain Syb(49-96)] |  |  | 2 | ≤ 3 | ≤ 10 |
